Data as given in patent US20090131309A1, “ICA512 COUPLES INSULIN SECRETION AND GENE EXPRESSION IN BETA-CELLS” (Technische Universität Dresden Medizinizche Fakultät Carl …, priority 2004, published 2009).
Residues, ends and D or L forms follow the SMILES beside them. *: point of attachment. Cbz = O=C(OCc1ccccc1)*

Assays:
μ-calpain = target: T1, μ-calpain (Homo sapiens, UniProt P07384); format: biochemical; details: bacterially expressed ICA512 (601-979), 50 μM Ca2+, 30 μM inhibitor
T1 sequence (P07384 1-714): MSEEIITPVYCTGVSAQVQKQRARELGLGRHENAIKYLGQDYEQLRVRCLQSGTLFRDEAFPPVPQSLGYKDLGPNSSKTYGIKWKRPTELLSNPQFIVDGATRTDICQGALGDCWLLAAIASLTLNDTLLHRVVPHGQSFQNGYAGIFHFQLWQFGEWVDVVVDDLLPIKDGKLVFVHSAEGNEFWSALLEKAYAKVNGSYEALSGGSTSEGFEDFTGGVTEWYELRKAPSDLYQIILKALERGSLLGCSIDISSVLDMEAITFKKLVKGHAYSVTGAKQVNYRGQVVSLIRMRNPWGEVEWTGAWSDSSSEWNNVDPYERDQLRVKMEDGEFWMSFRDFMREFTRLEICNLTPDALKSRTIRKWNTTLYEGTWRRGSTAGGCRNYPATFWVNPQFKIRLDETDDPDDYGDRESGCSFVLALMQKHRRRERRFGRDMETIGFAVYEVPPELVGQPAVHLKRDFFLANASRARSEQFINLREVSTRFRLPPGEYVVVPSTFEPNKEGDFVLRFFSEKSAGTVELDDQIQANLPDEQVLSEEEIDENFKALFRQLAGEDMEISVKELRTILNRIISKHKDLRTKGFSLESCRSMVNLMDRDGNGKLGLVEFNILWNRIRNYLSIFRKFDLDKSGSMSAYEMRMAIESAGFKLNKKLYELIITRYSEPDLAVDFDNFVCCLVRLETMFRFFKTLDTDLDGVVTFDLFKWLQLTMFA
T1 sequence (P04632 1-268 partner): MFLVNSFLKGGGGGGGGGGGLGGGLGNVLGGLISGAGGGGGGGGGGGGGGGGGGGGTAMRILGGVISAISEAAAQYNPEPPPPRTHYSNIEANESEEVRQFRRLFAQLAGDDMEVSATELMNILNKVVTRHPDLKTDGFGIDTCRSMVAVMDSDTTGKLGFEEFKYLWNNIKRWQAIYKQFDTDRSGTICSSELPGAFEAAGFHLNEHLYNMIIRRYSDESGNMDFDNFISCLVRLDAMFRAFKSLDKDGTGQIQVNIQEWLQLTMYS
Method: In-vitro μ-calpain cleavage. 3 μg bacterially expressed His-ICA512 cytoplasmic domain (residues 601-979) (Ort et al., 2001) were incubated in 20 μl buffer (20 mM Tris-HCl pH 7.5, 50 μM CaCl2, 1 mM L-cysteine) at room temperature with or without 150 ng μ-calpain (Calbiochem) and 30 μM calpeptin or MG-132 for 1, 5, 15 or 45 minutes. The reactions were stopped by addition of an equal volume of 2×SDS sample buffer. Following SDS-PAGE, proteins were stained with Coomassie Blue (Bio-Rad).

[1] = tested on: T2, 6X histidine-tagged human ICA512 cytoplasmic domain (residues 601-979)
T2 sequence: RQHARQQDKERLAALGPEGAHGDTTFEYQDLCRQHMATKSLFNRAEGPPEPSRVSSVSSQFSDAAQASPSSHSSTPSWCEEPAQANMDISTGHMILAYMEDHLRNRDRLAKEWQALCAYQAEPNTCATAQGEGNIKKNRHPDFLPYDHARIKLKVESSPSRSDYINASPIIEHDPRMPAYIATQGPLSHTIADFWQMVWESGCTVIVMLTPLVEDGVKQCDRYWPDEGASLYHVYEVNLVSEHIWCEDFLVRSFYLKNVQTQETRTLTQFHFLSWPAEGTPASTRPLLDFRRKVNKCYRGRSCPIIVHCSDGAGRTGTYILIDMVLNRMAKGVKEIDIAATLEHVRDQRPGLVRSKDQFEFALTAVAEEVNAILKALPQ

[2] = target: ICA512-TMF (endogenous in INS-1 cells) (rat) (UniProt Q63259); experiment: cell-based or functional assay
PIASy = target: T3, PIASy (Mus musculus, UniProt Q9JM05); experiment: GST pull-down assay with PIASy; format: binding; details: in-vitro transcribed and translated 35S-labeled partner, glutathione-sepharose beads
T3 construct: made in house; host or cells: in-vitro transcription-translation (T7 coupled system, Promega)
T3 sequence (Q9JM05 2-507): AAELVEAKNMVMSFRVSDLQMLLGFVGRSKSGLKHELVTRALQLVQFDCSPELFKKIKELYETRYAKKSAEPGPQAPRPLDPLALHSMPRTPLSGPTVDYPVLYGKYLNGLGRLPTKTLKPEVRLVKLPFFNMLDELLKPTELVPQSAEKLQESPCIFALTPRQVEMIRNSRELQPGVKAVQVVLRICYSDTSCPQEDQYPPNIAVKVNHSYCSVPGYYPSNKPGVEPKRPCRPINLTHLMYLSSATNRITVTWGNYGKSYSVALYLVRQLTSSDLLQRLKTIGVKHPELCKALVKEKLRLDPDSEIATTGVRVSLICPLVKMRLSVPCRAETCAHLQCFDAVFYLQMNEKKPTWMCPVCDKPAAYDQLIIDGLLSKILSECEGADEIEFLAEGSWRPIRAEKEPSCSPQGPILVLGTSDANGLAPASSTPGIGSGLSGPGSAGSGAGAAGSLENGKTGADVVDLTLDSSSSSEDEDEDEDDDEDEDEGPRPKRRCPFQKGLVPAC
Method: GST-Pull Down Assays. ICA512 (601-979) cDNA in pET28a (invitrogen) (29) was in vitro transcribed and translated using the T7/coupled transcription-translation system (Promega, Madison, Wis.) according to manufacture's instructions. PIAS1-GST and PIASy-GST (a kind gift of Rudolf Grosschedl) were expressed in bacteria as previously described (21, 30). Next, [^35S]-methionine-labeled ICA512 (601-979) was incubated overnight at 4° C. in GST binding buffer (120 mM NaCl, 50 mM Tris pH8, 0.25% Nonidet P-40, 1 mM DTT, 1 mM PMSF) with GST-fusion proteins or GST alone coupled to glutathione-sepharose beads (Amersham, Freiburg, Germany). Beads were washed five times with binding buffer, and then eluted with 10 mM reduced glutathione. The eluate was subjected to SDS-PAGE and analyzed by autoradiography.
Pull-down assays. GST-ICA512 (601-979), GST-ICA512 (700-979), and GST-ICA512 (800-979) were bacterially expressed as described^26. [^35S]-methionine-PIASy, -ICA512 (601-979), -p53 and -firefly luciferase were in-vitro transcribed and translated with the T7/coupled transcription-translation system (Promega) according to the manufacturer's instructions. [^35S]-PIASy was incubated with GST-ICA512 proteins or GST, while [^35S]-ICA512 (601-979), [^35S]-p53 and [^35S]-firefly luciferase were incubated with MBP-Ubc9. Proteins were collected with glutathione-(Amersham) or amylose-(New England Biolabs) sepharose beads as described^38. Proteins eluted from beads with glutathione or maltose were analyzed by SDS-PAGE and autoradiography with a phosphoimager BAS1800 II (Fuji).

STAT5 = experiment: Firefly luciferase reporter assay for STAT activity (8GLE-CAS-FL) in INS-1 cells; format: cell-based, rat; details: co-transfected INS-1 cells, hGH stimulation
Method: Firefly luciferase assays. INS-1 cells were co-transfected with 8GLE-CAS-FL and one or two of the following plasmids: pEGFP, ICA512-CCF-GFP, ICA512-CCF(K/A^754)-GFP and PIASy-GFP. Two days after transfection, cells were incubated in low serum medium for 18 hrs, then stimulated with 20 nM hGH for 20 minutes, and finally left in resting buffer for 6 additional hours. Cells were harvested in 500 μl lysis reagent for luciferase assays (Promega) and 10 μl were used for measurement of luciferase activity in a Berthold luminometer. Each sample was performed in triplicate and the data represent the mean of at least 2 independent experiments.

In the case of CC(C)C[C@@H](C=O)NC(=O)[C@H](CC(C)C)NC(=O)[C@H](CC(C)C)NC(=O)OCc1ccccc1 [MG-132] (Cbz-Leu-Leu-Leu-aldehyde), the “Cleavage by μ-calpain” value (μ-calpain) is reported as “inhibited”.

In the case of µ-calpain (Calbiochem), the “in-vitro cleavage of bacterially expressed ICA512 (601-979) by µ-calpain, Coomassie Blue staining” value [1] is reported as “Cleavage by µ-calpain was inhibited by calpeptin and MG-132, another inhibitor of cysteine proteases (FIG. 8)”.

In the case of “rat µ-calpain (endogenous in INS-1 cells) (from UniProt P97571 1-713)”, the stimulus-dependent degradation of ICA512-TMF after siRNA knockdown of µ-calpain in INS-1 cells [2] is reported as 1.6 fold.

B1: GST-ICA512 (700-979): GST fusion which only contains the PTP domain (protein)
chain: EDHLRNRDRLAKEWQALCAYQAEPNTCATAQGEGNIKKNRHPDFLPYDHARIKLKVESSPSRSDYINASPIIEHDPRMPAYIATQGPLSHTIADFWQMVWESGCTVIVMLTPLVEDGVKQCDRYWPDEGASLYHVYEVNLVSEHIWCEDFLVRSFYLKNVQTQETRTLTQFHFLSWPAEGTPASTRPLLDFRRKVNKCYRGRSCPIIVHCSDGAGRTGTYILIDMVLNRMAKGVKEIDIAATLEHVRDQRPGLVRSKDQFEFALTAVAEEVNAILKALPQ
modifications: left off: a dimerising Fc or GST
notes: GST fusion which only contains the PTP domain
In the case of B1, the “binding to PIASy in pull-down assay” value (PIASy) is reported as “bound”.

B2: ICA512-CCF(K/A^754)-GFP: ICA512-CCF-GFP construct in which Lys754 was replaced by alanine (protein)
chain: SQFSDAAQASPSSHSSTPSWCEEPAQANMDISTGHMILAYMEDHLRNRDRLAKEWQALCAYQAEPNTCATAQGEGNIKKNRHPDFLPYDHARIKLAVESSPSRSDYINASPIIEHDPRMPAYIATQGPLSHTIADFWQMVWESGCTVIVMLTPLVEDGVKQCDRYWPDEGASLYHVYEVNLVSEHIWCEDFLVRSFYLKNVQTQETRTLTQFHFLSWPAEGTPASTRPLLDFRRKVNKCYRGRSCPIIVHCSDGAGRTGTYILIDMVLNRMAKGVKEIDIAATLEHVRDQRPGLVRSKDQFEFALTAVAEEVNAILKALPQ
modifications: left off: large carriers
notes: ICA512-CCF-GFP construct in which Lys754 was replaced by alanine
With B2 the “STAT5 transcription activity (8GLE-CAS-FL luciferase)” value (STAT5) was “enhances its transcription activity less than ICA512-CCF-GFP”.

B3: GST-ICA512 (800-979): GST fusion which lacks the first 100 residues of the PTP domain (protein)
chain: ESGCTVIVMLTPLVEDGVKQCDRYWPDEGASLYHVYEVNLVSEHIWCEDFLVRSFYLKNVQTQETRTLTQFHFLSWPAEGTPASTRPLLDFRRKVNKCYRGRSCPIIVHCSDGAGRTGTYILIDMVLNRMAKGVKEIDIAATLEHVRDQRPGLVRSKDQFEFALTAVAEEVNAILKALPQ
modifications: left off: a dimerising Fc or GST
notes: GST fusion which lacks the first 100 residues of the PTP domain
B3 was tested, and the “binding to PIASy in pull-down assay” value (PIASy) was “did not bind”.

B4: GST-ICA512 (601-979): GST fusion encompassing the entire ICA512 cytoplasmic domain (protein)
chain: T2 sequence
modifications: left off: a dimerising Fc or GST
notes: GST fusion encompassing the entire ICA512 cytoplasmic domain
In the case of B4, the “binding to PIASy in pull-down assay” value (PIASy) is reported as “bound”.
